Experimental data taken from patent US8962344B2, “Membrane-coated particles” (Synamem Corporation, priority 2008, dated 2015).

Assays:
transferrin receptor = biological target: T1, transferrin receptor (Cricetulus griseus, UniProt Q07891); experiment: Ligand binding and displacement assay on membrane-coated particles (fluorescence microscopy); parameters: species or system Chinese Hamster
T1 construct: present endogenously in membrane-coated particles derived from CHO cell membranes; endogenous in cells; host or cells: CHO cell membranes deposited on silica microspheres
T1 sequence (Q07891 whole entry): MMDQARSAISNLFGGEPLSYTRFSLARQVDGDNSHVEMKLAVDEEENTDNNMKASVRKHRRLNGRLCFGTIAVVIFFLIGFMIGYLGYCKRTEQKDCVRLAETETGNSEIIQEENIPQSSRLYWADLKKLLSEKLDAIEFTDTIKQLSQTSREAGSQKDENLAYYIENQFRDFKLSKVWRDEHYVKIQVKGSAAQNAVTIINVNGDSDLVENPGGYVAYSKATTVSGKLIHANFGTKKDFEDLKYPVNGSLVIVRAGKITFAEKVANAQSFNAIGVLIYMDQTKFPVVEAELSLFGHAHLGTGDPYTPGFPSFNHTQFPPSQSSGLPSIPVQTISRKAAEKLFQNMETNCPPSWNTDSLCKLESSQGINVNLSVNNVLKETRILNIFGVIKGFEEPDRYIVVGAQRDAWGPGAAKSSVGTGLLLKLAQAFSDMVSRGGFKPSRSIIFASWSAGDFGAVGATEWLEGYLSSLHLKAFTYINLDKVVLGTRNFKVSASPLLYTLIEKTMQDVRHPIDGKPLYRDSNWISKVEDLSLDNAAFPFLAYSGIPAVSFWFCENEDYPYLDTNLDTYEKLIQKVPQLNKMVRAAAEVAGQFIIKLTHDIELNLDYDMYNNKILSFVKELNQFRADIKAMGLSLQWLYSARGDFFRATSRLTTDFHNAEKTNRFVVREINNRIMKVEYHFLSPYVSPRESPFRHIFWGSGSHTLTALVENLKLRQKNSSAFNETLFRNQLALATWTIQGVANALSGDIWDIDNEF
Protocol: (§1) The binding of transferrin to its receptor was studied for ligand/receptor interactions, present endogenously in membrane-coated particles derived from CHO cell membranes (Example 1). Freshly-prepared membrane-coated particles were resuspended in 1 ml of binding buffer (10 mM Tris-HCl pH 7.4, 100 mM NaCl). Beads were subsequently pelleted and resuspended in 1 ml of blocking buffer (0.1% w/v casein in binding buffer), and incubated at room temperature for 15 minutes with rotation. Beads were pelleted and resuspended in 980 μL of binding buffer. At this time, any inhibitors or antagonists (e.g. excess of unlabeled transferrin) could have been added for a pre-incubation step. ALEXA FLUOR® 488-conjugated human holotransferrin was added to the membrane-coated particles at a final concentration of 10 μg/ml, followed by incubation at room temperature for 15 minutes with rotation. Following the incubation with transferrin, the beads were washed twice with binding buffer in preparation for viewing using fluorescence microscopy (same microscope apparatus as described in Example 1). The accessibility of membrane proteins (in this case the transferrin receptor) to interact with various ligands and test agents (in this case transferrin) is shown by the results (see FIGS. 2A-2E).

[1] = Labeled ligand binding to bare silica beads (control for non-specific binding); conditions: silica beads devoid of membranes; FIG. 2C
Protocol: as §1

| binding of fluorescently-labeled transferrin to the membrane-coated particles (transferrin receptor; endogenously-expressed transferrin receptor, CHO cell membranes on silica beads, 10 μg/ml, room temperature, 15 minutes, FIG. 2A) | interaction of fluorescently-labeled transferrin with bare silica [1] | competition of labeled transferrin binding (transferrin receptor; 100-fold molar excess of unlabeled transferrin, CHO membrane-coated particles, FIG. 2B) | Substance |
| --- | --- | --- | --- |
| binds efficiently | does not interact appreciably |  | fluorescently-labeled transferrin: ALEXA FLUOR® 488-conjugated human holotransferrin, labeled ligand of the transferrin receptor |
|  |  | readily competed away | unlabeled transferrin: unlabeled transferrin used in excess as competitor of labeled transferrin binding |
